Biological target: PNR hinge-LBD (131–410) (human) (UniProt Q9Y5X4)
Test: two-hybrid; as a1, yeast cultured in the presence of the cognate ligand of the AAD partner (T3 for TRβ)

Sequence of UniProt Q9Y5X4 (Q9Y5X4 131-410): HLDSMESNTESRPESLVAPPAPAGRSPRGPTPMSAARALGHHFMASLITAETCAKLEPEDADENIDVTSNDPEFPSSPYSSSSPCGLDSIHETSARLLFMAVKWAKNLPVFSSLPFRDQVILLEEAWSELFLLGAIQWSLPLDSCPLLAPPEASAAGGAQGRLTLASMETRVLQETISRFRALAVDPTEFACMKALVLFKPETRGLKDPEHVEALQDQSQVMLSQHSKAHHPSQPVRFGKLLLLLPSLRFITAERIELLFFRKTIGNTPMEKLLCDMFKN

near full-length VP16-TRβ1 construct (from UniProt P10828 1-461) (domain or fragment)
fold induction of reporter activity by T3: 20 fold

Reference: PMC5386588
